The target of assay [1] is T1, Cynomolgus monkey full-length B7H3 on transfected FlpinCHO cells (cynomolgus monkey).
T1 construct: whole, on cells; also called W3XX088-FlpinCHO.cProl.pool
In words: FACS on cynomolgus monkey B7H3-transfected FlpinCHO cell pool. The procedure:
FACS was used to detect the binding of antibodies to cynomolgus monkey B7H3. FlpinCHO cells were transfected with cynomolgus monkey B7H3 (W3XX088-FlpinCHO.cProl.pool) (1×10⁵ cells/well), and the transfected cells were incubated with various concentrations of antibodies (3.16-fold serially diluted with 1×DPBS/1% BSA from 50 nM to 0.0005 nM) in a volume of 100 μL/well in a refrigerator set to 4° C. for 1 h. Anti-human B7H3 reference antibody enoblituzumab (MacroGeneics) was used as a positive control. Human IgG1 isotype antibody was used as a negative control. After washing the cells with 1×DPBS/1% BSA, Alexa 647 goat anti-human antibody (diluted in a 1:500 ratio in 1×DPBS/1% BSA) was added. The cells were incubated in a refrigerator set to 4° C. for 0.5 h in the dark. The mean fluorescence intensity (MFI) of the cells was measured by a flow cytometry and analyzed by FlowJo. EC₅₀ values were calculated by four-parameter non-linear regression analysis using GraphPad Prism 7 software.

Assay [2] deals with T2, Human BTNL2 protein, His Tag (human, UniProt Q9UIR0-1 24-455, limits assumed).
T2 construct: Bought protein; also called AtaGenix ATMP02212HU; not shown: His tag
T2 sequence (looked up): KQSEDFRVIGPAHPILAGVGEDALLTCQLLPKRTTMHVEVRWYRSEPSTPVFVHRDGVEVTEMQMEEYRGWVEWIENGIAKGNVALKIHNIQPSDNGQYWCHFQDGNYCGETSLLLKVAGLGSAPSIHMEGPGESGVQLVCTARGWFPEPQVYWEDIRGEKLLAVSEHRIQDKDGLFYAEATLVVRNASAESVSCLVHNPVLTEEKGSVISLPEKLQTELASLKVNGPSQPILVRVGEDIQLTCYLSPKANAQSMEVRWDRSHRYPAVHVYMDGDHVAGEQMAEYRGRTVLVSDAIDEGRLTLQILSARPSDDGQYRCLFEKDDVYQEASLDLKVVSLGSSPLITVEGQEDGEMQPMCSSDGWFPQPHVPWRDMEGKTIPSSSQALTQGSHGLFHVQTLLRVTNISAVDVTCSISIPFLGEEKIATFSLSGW
In words: ELISA, protein immobilized on plate, serially diluted antibody. On the procedure:
(§1) Human PD-L1 protein (see the table above), human B7-H2 protein, human B7-H3 protein, human B7-H4 protein, human B7-H5 protein, human B7-H6 protein, human B7-1 protein, human B7-2 protein, human PD-L2 protein, human B7-H7 protein, and human BTNL2 protein were separately immobilized on 96-well plates by incubation at 4° C. overnight. The 96-well plates were then blocked by incubation with 1% BSA in PBS at 37° C. for 1 h. After blocking, the 96-well plates were washed 3 times with PBST (PBS containing 0.05% Tween 20). […] After incubation, the 96-well plates were washed 3 times with PBST, incubated with a secondary antibody (see the table above) in binding buffer at 37° C. for 1 h, and then washed again. TMB was added for color development, and the reaction was stopped by 1 M H₂SO₄.
A general note: In an ELISA, binding on a coated surface is turned into a signal by an enzyme label.

Assay [3] deals with T3, Human B7-H3(4Ig), His Tag (human, UniProt Q5ZPR3 29-461).
T3 construct: also called recombinant human B7H3 antigen; human B7-H3 protein; not shown: His tag
T3 sequence (looked up): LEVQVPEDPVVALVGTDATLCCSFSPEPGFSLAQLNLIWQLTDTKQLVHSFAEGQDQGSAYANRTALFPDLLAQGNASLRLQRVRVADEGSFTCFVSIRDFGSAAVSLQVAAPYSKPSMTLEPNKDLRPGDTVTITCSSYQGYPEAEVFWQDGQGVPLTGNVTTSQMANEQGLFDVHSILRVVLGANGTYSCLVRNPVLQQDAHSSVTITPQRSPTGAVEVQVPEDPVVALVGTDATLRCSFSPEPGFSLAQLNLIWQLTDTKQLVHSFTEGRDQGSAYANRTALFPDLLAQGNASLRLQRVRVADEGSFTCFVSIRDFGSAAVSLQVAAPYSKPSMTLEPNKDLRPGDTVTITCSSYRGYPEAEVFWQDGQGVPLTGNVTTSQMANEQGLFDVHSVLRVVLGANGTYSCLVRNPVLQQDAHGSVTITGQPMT
In words: ELISA, plate coated with 2 µg/mL recombinant human B7-H3 (4Ig), serially diluted antibody, HRP anti-human secondary antibody, OD450. The procedure:
A 96-well ELISA plate was coated with 2 μg/mL recombinant human B7H3 antigen (see the table above) at 30 μL/well and kept at 4° C. overnight. The following day, the well plate was washed 3 times with PBST and then blocked with 5% skim milk for 2 h. […] The plate was then washed 3 times with PBST, and an HRP-labeled anti-human secondary antibody diluted in a 1:5000 ratio was then added at 100 μL/well and incubated for 1 h. After the incubation was complete, the plate was washed six times with PBST, and TMB (SurModics, TMBS-1000-01) was added for color development. Based on the results of the color development, the reaction was stopped by adding 2M HCl, and the plate was read by a microplate reader (Molecular Devices, SpecterMax 190) at OD450.

The target in assay [4] is T2, Human BTNL2 protein, His Tag. Put plainly: ELISA, protein immobilized on plate, serially diluted antibody-drug conjugate. On the procedure:
as §1

Consider four molecules from patent US20260224723A1 (DUALITY BIOLOGICS SUZHOU, published 2026).

B1: Enoblituzumab (MacroGenics) (antibody, V domains shown)
VH: EVQLVESGGGLVQPGGSLRLSCAASGFTFSSFGMHWVRQAPGKGLEWVAYISSDSSAIYYADTVKGRFTISRDNAKNSLYLQMNSLRDEDTAVYYCGRGRENIYYGSRLDYWGQGTTVTVSS
VL: DIQLTQSPSFLSASVGDRVTITCKASQNVDTNVAWYQQKPGKAPKALIYSASYRYSGVPSRFSGSGSGTDFTLTISSLQPEDFATYYCQQYNNYPFTFGQGTKLEIKR
As to B1, it took 9.58 nM to reach a half-maximal effect in assay [1] (EC50).

B2: W301088-1.145.16-z3-p1-uIgG1KV320 (antibody, V domains shown)
VH: QVQLQESGPGLVKPSQTLSLTCTVTDYSITGDYAWNWIRQHPGKGLEWIGYISYSGSTSYNPSLQSRVTISRDTSKNQFSLKLSSVTAADTAVYFCARSLGRRWYFVVWGQGTTVTVSS
VL: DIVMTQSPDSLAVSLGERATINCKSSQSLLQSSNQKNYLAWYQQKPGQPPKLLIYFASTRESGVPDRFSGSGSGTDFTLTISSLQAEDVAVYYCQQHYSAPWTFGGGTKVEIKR
notes: Humanized, PTM-removed (VL N027dQ) antibody; human IgG1 LALA, kappa; also called WBP301088; W301088-z3-p1
As to B2, in assay [2], the binding result is “no binding”. The molecule further displayed a 50% effective concentration (EC50) in assay [1] of 4.68 nM. The “EC50 (read off the curve)” value in assay [3] is about 0.1 µg/mL.

B3: Antibody-drug conjugate WBP301088-X2 (DAR6) (antibody, human IgG1, kappa, L234A L235A, V domains shown)
VH: B2 VH
VL: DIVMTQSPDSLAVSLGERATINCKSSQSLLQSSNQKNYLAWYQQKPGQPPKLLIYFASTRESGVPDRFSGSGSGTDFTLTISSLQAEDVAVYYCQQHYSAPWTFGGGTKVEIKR
modifications: linker-payload X2 conjugated after TCEP reduction; drug loading (DAR) 5.68 per antibody; sites not stated
On to B3, for which, in assay [4], the binding result is “no binding”.

B4: W301088-1.145.16-xIgG1KV320 (antibody, V domains shown)
VH: DVQLQESGPGLVKPSQSLSLTCTVTDYSITGDYAWNWIRQFPGNKLEWMGYISYSGSTSYNPSLQSRISITRDTSKNQFFLQLNSVTSEDTATYFCARSLGRRWYFVVWGAGTTVTVSA
VL: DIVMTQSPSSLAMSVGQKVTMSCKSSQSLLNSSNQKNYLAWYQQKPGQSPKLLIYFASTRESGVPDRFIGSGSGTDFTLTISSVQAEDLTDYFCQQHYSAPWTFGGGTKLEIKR
Regarding B4, the EC50 in assay [1] came to 5.25 nM.

The EC50 is the midpoint of the concentration-response curve. As a reminder, the EC50 (read off the curve) is the concentration that produces a half-maximal response.
